Test results as given in PMC7190159, “The L motifs of two moss pentatricopeptide repeat proteins are involved in RNA editing but predominantly not in RNA recognition”.

Experiments:
Details in all cases: protein: recombinant; tags: N-term thioredoxin; C-term 6xHis; label: 5'-32P
56ΔDYW-13L[PD] [1] = biological target: T1, 56ΔDYW-13L[PD] (Physcomitrella patens, UniProt A0A2K1IWP1 161-764, V592P); assay: EMSA; 100 nM protein; 40 mM Tris pH 8.0, 100 mM NaCl, 4 mM DTT, 0.1 mg/mL BSA, 10% glycerol, 25°C; protein 10 min, then 50 pM RNA 15 min; native 6% PAGE
T1 sequence: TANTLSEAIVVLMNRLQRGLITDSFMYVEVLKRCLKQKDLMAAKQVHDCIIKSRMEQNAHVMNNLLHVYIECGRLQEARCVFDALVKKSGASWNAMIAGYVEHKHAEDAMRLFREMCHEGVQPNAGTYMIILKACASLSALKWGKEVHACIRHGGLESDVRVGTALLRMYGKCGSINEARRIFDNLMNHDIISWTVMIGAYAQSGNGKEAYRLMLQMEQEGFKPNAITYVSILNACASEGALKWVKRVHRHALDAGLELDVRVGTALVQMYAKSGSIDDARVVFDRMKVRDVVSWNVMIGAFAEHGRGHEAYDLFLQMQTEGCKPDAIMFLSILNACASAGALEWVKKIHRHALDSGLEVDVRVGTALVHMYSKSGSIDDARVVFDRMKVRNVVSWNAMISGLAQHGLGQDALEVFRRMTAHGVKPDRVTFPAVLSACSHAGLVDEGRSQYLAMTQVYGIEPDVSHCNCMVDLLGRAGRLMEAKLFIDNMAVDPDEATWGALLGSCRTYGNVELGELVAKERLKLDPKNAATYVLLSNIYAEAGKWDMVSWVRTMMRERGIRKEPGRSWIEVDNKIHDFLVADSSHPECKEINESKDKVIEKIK

56ΔDYW-nad3L [2] = biological target: T2, 56ΔDYW-nad3L (Physcomitrella patens, UniProt A0A2K1IWP1 161-764, V188N;M289T;V390T;D420N;L491N;D521S;V592N;D623S); assay: as above
T2 sequence: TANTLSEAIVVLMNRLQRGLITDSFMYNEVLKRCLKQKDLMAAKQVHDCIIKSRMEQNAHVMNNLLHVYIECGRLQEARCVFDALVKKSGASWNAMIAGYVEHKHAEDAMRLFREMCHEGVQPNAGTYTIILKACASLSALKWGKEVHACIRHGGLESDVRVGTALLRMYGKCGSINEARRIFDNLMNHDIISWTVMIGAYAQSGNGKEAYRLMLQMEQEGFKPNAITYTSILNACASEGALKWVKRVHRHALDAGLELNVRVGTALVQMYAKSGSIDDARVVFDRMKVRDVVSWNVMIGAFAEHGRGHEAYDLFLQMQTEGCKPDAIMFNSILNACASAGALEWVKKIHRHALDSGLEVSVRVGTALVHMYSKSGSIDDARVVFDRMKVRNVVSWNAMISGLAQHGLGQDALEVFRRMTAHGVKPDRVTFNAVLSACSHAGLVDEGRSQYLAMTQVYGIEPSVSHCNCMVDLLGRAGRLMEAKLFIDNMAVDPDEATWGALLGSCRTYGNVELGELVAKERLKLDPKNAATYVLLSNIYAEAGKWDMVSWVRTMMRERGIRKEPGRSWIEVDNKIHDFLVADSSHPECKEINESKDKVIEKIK

[3] = biological target: T3, 56ΔDYW-wt (PpPPR_56 without transit peptide and DYW domain) (Physcomitrella patens, UniProt A0A2K1IWP1 161-764); assay: as above
T3 sequence: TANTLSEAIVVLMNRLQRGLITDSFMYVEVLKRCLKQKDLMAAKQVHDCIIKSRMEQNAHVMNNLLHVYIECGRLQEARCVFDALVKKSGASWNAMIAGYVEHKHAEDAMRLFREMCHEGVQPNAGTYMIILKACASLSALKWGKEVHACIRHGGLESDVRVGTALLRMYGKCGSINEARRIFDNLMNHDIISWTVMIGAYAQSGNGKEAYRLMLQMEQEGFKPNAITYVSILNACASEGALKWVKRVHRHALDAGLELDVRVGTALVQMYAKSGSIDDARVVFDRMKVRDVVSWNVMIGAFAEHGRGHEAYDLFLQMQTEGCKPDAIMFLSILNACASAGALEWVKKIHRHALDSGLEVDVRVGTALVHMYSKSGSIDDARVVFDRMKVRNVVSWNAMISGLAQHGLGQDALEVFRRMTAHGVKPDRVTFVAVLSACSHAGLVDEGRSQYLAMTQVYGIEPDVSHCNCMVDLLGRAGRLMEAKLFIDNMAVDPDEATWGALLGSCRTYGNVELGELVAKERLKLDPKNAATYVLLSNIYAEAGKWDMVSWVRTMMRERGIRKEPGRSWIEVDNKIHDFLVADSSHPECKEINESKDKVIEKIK

56ΔDYW-13L[ED] [4] = biological target: T4, 56ΔDYW-13L[ED] (Physcomitrella patens, UniProt A0A2K1IWP1 161-764, V592E); assay: as above
T4 sequence: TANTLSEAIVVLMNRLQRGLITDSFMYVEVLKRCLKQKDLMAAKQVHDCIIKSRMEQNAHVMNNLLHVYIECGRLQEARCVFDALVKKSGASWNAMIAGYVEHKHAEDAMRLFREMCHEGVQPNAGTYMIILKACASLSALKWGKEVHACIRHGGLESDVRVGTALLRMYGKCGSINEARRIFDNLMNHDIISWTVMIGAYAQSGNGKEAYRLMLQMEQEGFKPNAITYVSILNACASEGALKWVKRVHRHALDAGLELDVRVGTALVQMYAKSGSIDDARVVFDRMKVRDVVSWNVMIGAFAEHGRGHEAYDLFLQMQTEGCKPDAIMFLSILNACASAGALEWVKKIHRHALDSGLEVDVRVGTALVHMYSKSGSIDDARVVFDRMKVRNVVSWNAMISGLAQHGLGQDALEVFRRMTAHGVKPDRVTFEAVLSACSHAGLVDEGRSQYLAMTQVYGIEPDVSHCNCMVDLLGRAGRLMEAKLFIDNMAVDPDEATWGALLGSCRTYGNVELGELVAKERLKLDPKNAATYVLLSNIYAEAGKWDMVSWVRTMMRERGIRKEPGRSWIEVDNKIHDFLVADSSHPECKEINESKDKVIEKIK

[5] = biological target: T3, 56ΔDYW-wt (PpPPR_56 without transit …); assay: EMSA; 0-100 nM protein, 50 pM RNA; better affinity than for nad3; 40 mM Tris pH 8.0, 100 mM NaCl, 4 mM DTT, 0.1 mg/mL BSA, 10% glycerol, 25°C; protein 10 min, then 50 pM RNA 15 min; native 6% PAGE
56ΔDYW-13L[PD] [6] = biological target: T1, 56ΔDYW-13L[PD]; assay: EMSA; like wt; 40 mM Tris pH 8.0, 100 mM NaCl, 4 mM DTT, 0.1 mg/mL BSA, 10% glycerol, 25°C; protein 10 min, then 50 pM RNA 15 min; native 6% PAGE
56ΔDYW-13L[ED] [7] = biological target: T4, 56ΔDYW-13L[ED]; assay: as above
56ΔDYW-nad3L [8] = biological target: T2, 56ΔDYW-nad3L; assay: EMSA; no significant difference from wt; 40 mM Tris pH 8.0, 100 mM NaCl, 4 mM DTT, 0.1 mg/mL BSA, 10% glycerol, 25°C; protein 10 min, then 50 pM RNA 15 min; native 6% PAGE
[9] = biological target: T3, 56ΔDYW-wt (PpPPR_56 without transit …); assay: EMSA; 0-100 nM protein, 50 pM RNA; lower affinity than for nad4; 40 mM Tris pH 8.0, 100 mM NaCl, 4 mM DTT, 0.1 mg/mL BSA, 10% glycerol, 25°C; protein 10 min, then 50 pM RNA 15 min; native 6% PAGE

Row | Binder | binding result (56ΔDYW-13L[PD] [1]) | binding result (56ΔDYW-nad3L [2]) | binding result [3] | binding result (56ΔDYW-13L[ED] [4]) | binding result [5] | binding result (56ΔDYW-13L[PD] [6]) | binding result (56ΔDYW-13L[ED] [7]) | binding result (56ΔDYW-nad3L [8]) | binding result [9]
1 | UUAUUUUUUUCGUUUCUCUUUUUGUUUUU (ssRNA) [PpPsbI-RNA1] | no binding | no binding | no binding | no binding | – | – | – | – | –
2 | AUUUUUAUAUAGGUAUAGACGGUAUCUCUUCAUUUU (ssRNA) [nad4-edit] | – | – | – | – | binds | binds | binds | – | –
3 | UUAUUAUAUUUGAUUUGGAAGUCACCUUUUCAUUUC (ssRNA) [nad3-edit] | – | – | – | – | – | binds | binds | binds | binds
